Assay results published in publication PMC9051087.
Where “and” joins values, the source holds several entries; their conditions need not be identical. Equal entries are not always repeated.

Assays:
[1] = biological target: Thermococcus celer HARP (Thermococcus celer); test: SEC; TcHARP at higher salt (200–500 mM); Superdex 200 Increase 10/300 GL, 20 mM Tris-HCl pH 8.0
[2] = biological target: PbHARP A118E/A121E mutant (Planctomycetes bacterium GWF2_40_8); test: SEC; PbHARP wild type and mutants; Superdex 200 Increase 10/300 GL, 20 mM Tris-HCl pH 8.0, 300–500 mM salt for the wild type (it precipitates at lower salt); 300 ug protein, 0.4 mL/min
[3] = biological target: Planctomycetes bacterium HARP (homolog of Aquifex RNase P) (Planctomycetes bacterium GWF2_40_8); test: cross-linking; BS3 (0, 0.01, 0.03 mM), 25 °C 1 h, 37.6 uM PbHARP without or with 45.1 uM His-7bp pre-tRNA and 10 mM CaCl2; 20 mM HEPES pH 7.9, 500 mM NaCl; SDS-PAGE
[4] = biological target: Planctomycetes bacterium HARP (homolog of Aquifex RNase P) (Planctomycetes bacterium GWF2_40_8); test: SEC; PbHARP wild type and mutants; Superdex 200 Increase 10/300 GL, 20 mM Tris-HCl pH 8.0, 300–500 mM salt for the wild type (it precipitates at lower salt); 300 ug protein, 0.4 mL/min

Q: With Thermococcus celer HARP (enzyme) as the substance, how does the stoichiometry N [1] read?
A: The stoichiometry N was 2.

Q: For PbHARP A118E/A121E mutant (enzyme), which stoichiometry N [2] is on record?
A: Its stoichiometry N is 2.

Q: Which results are given for “Planctomycetes bacterium HARP (homolog of Aquifex RNase P) (enzyme)”?
A: stoichiometry N [3]: 2 and 4; stoichiometry N [4]: 2
